We go through 13 molecules from patent US20110311550A1 (Scripps Research, published 2011).

The target of test [1] is HCV E1E2 antigen, isolate UKN5.15.7 (hepatitis C virus, isolate UKN5.15.7). As to the kind of experiment: ELISA, Fab on E1E2 antigen.
Test [2] has as its target T1, HCV E1E2 antigen, isolate JFH (hepatitis C virus, isolate JFH, UniProt Q99IB8 192-383; Q99IB8 384-750).
T1 construct: also called JFH-1
As to the kind of experiment: ELISA, Fab on E1E2 antigen.

The target of test [3] is HCV E1E2 antigen, isolate UKN2B1.1 (hepatitis C virus, isolate UKN2B1.1). As to the kind of experiment: ELISA, Fab on E1E2 antigen.
The target of test [4] is HCV E1E2 antigen, isolate OH8 (hepatitis C virus, isolate OH8). As to the kind of experiment: ELISA, Fab on E1E2 antigen.
Test [5] has as its target HCV E1E2 antigen, isolate UKN4.21.16 (hepatitis C virus, isolate UKN4.21.16). As to the kind of experiment: ELISA, Fab on E1E2 antigen.
In test [6] the target is HCV E1E2 antigen, isolate J6E3 (hepatitis C virus, isolate J6E3, UniProt P26660 192-383; P26660 384-750). As to the kind of experiment: ELISA, Fab on E1E2 antigen.
Test [7] addresses HCV E1E2 antigen, isolate UKN6.5.8 (hepatitis C virus, isolate UKN6.5.8). As to the kind of experiment: ELISA, Fab on E1E2 antigen.
Test [8] concerns the target HCV E1E2 antigen, isolate UKN1B12.16 (hepatitis C virus, isolate UKN1B12.16). As to the kind of experiment: ELISA, Fab on E1E2 antigen.
The target in test [9] is HCV E1E2 antigen, isolate CH35 (hepatitis C virus, isolate CH35). As to the kind of experiment: ELISA, Fab on E1E2 antigen.
Test [10] has as its target HCV E1E2 antigen, isolate UKN3A1.28c (hepatitis C virus, isolate UKN3A1.28c). As to the kind of experiment: ELISA, Fab on E1E2 antigen.
In test [11] the target is HCV E1E2 complex, isolate H77 (genotype 1a) (hepatitis C virus genotype 1a, isolate …, UniProt P27958 192-383; P27958 384-746). As to the kind of experiment: Fab screen after panning on E1E2 (H77).

B1: Fab S1 (Fab, V domains shown)
VH: VQLLEQSGAEVKKPGTSVKVSCTASGYIFTSFGISWVRQAPGQGLEWMGRIDTYNGKTNYAQKLQGRVTMTTDTYTSTAYMELRSLTSDDTAVYYCARDDCRSSTCYLAQHNWQAYYHDSWGQGTLVTVSS
VL: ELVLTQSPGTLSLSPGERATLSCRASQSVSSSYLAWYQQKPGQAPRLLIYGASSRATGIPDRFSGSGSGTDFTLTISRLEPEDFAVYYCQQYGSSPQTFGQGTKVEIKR
B1: the “OD 450 nm” value in [1] was determined as 0.18 OD 450 nm; in test [2], 0.21 OD 450 nm; in test [3] it was 0.03 OD 450 nm; in [4], 1.32 OD 450 nm; in [5], 1.12 OD 450 nm; in [6] it was 0.07 OD 450 nm. Moreover, the “OD 450 nm” value in test [7] came out at 0.08 OD 450 nm; in [8] it was 0.26 OD 450 nm; in test [9], 0.79 OD 450 nm; in [10], 0.55 OD 450 nm.

B2: Fab R1 (Fab, V domains shown)
VH: VQLLEQSGAEVKKPGASVKVSCKASGYTFSIYGVAWVRQAPGQGLEWMGWISPQNGDTHSPQKFQGRLTMTTDTSTSTAYMELRSLRSDDTAVYFCARDYGVNFGGGSEHNLDYWGRGTRVTVSS
VL: ELTQSPLSLPVTPGEPASISCRSSYSLLHINGYKYLDWYLQRPGQSPQLLIYLGSNRAPGVPDRFSGSGSGTSFTLKISRVEAEDVGVYYCMQSLQAPWTFGQGTKVEMKR
In the case of B2, the “OD 450 nm” value in test [1] was 0 OD 450 nm; in [2] it was 0 OD 450 nm; in [3], 0.02 OD 450 nm; in [4] it was 0.5 OD 450 nm; in [5] it was 0.01 OD 450 nm; in [6] it was 0 OD 450 nm. The “OD 450 nm” value came to 0.05 OD 450 nm in test [7], 0.03 OD 450 nm in test [8], 0.15 OD 450 nm in test [9] and 0 OD 450 nm in test [10].

B3: Fab Q1 (Fab, V domains shown)
VH: VQLLEQSGAEVRKPGASVKVSCKASGYTFTNNGLNWVRQAPGQGLEWMGWISPYNGDTDFAHKFQGRISMTTDTSTNTAYMELRSLRSDDTAVYYCARDRNSAGGTWLFRDPPPGSTFFDSWGQGSLVTVSS
VL: not shown
As to B3, the “OD 450 nm” value turned out to be 0.3 OD 450 nm in test [1]; 0.43 OD 450 nm in test [2]; 0.03 OD 450 nm in test [3]; 0.96 OD 450 nm in test [4]; 0.85 OD 450 nm in [5]; 0.19 OD 450 nm in [6]. The “OD 450 nm” value in test [7] is 0.1 OD 450 nm; in test [8], 0.38 OD 450 nm; in [9] it was 0.48 OD 450 nm; in test [10], 1.07 OD 450 nm.

B4: Fab Q2 (Fab, V domains shown)
VH: VQLLEQSGAEVKKPGASVKVSCKASGYTFTNNGLNWVRQAPGQGLEWMGWISPYNGDTDFAHKFQGRISMTTDTSTNTAYMELRSLRSDDTAVYYCARDRNSAGGTWLFRDPPPGSTFFDSWGQGSLVTVSS
VL: ELTQSPASLSLSPGGSATLACRASRGVNSNLAWYHQKPGQAPRLLIYSASTRATGIPGRFSGSGFGTEFTLTINNLQSDDFGVYYCQQYDDTPQITFGQGTRLDIKR
Turning to B4, the “OD 450 nm” value in [1] was found to be 0.05 OD 450 nm; in test [2] it was 0.18 OD 450 nm; in test [3], 0.15 OD 450 nm; in test [4] it was 0.43 OD 450 nm; in test [5] it was 0.17 OD 450 nm; in [6], 0.25 OD 450 nm. Moreover, the “OD 450 nm” value in [7] amounted to 0.16 OD 450 nm; in test [8], 0.21 OD 450 nm; in test [9], 0.19 OD 450 nm; in test [10], 0.35 OD 450 nm.

B5: Fab T1 (Fab, V domains shown)
VH: EVQLLESGGGLVQPGGSLRLSCAASGFTFSRFWMHWVRQAPGKGLVWVARINSDGSSTTYADSVKGRFTISRDNAKNTLYLQMNSLRDEDTAVYFCARGGDSSSPYYYPMDVWGQGTTVAVSS
VL: not shown
For the molecule B5, the “OD 450 nm” value in test [1] is 0.07 OD 450 nm; in test [2], 0 OD 450 nm; in test [3], 0 OD 450 nm; in test [4] it was 0.15 OD 450 nm; in [5] it was 0.08 OD 450 nm; in test [6] it was 0 OD 450 nm. The “OD 450 nm” value in test [7] was found to be 0.01 OD 450 nm; in test [8], 0 OD 450 nm; in test [9] it was 0 OD 450 nm; in test [10], 0 OD 450 nm.

B6: Fab B5 (Fab, V domains shown)
VH: EVQLLESGAEVKKPGSSVKVSCRASGSPYSSYTITWVRQAPGQGLEWMGGIILMTGKANYAQKFQGRVTITADRATATAYMEMSSLTSDDTAIYYCARDPYVYAGDDVWSLSRWGQGTPVIVSS
VL: ELTQSPLSLPVIIGQPASISCSSSESLVDSDGNTYLHWFQQRPGQSPRRLIYKVSNRDAGVPDRFSGSGSGTDFTLKISRVEAEDVAVYYCMQATHWPPITFGPGTRLEVKR
For the molecule B6, the binding result in [11] is “binds”.

B7: Fab P6 (Fab, V domains shown)
VH: EVQLLESGGGVVQPGKSLTVSCAASGFTFSTFTMHWVRQAPGKWLEWVAVISHDGGTEHYADSVTGRFTISRDNSKNTLHMQMNSLRLEDTAVYFCARGGPAYYLYNDVLTGYYNVVGDFWGQGTLVTVSS
VL: ELIQSPGTLFLSSGERATLSCRASQSVSSSNLAWFQHKSGRAPRLLIYGASNRAPDIPDRFSGSGSGTDFTISISRLEPEDFAVYYCQRYGDSPPITFGQGTRLEIKR
For the molecule B7, the “OD 450 nm” value in test [1] stood at 0.08 OD 450 nm; in [2], 0 OD 450 nm; in [3], 0.13 OD 450 nm; in test [4] it was 0.46 OD 450 nm; in [5], 0.23 OD 450 nm; in test [6] it was 0.02 OD 450 nm. The “OD 450 nm” value in test [7] worked out at 0.12 OD 450 nm; in test [8], 0.26 OD 450 nm; in test [9], 0.21 OD 450 nm; in test [10], 0.37 OD 450 nm.

B8: Fab P2 (Fab, V domains shown)
VH: EVQLLESGGGVVQPGRSLRLSCAASGFTLDTFTMHWVRQSPGKGLEWVALISHDANNKDYADSVKGRFTISRDNSKKLVYLQMDSLRSEDTAVYYCARGGPAYYLYSDVLTGFHNVVGDYWGQGTLVTVSA
VL: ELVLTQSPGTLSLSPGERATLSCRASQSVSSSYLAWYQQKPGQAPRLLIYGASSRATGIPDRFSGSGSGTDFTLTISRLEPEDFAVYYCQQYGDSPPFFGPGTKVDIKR
B8: the “OD 450 nm” value in test [1] turned out to be 0.25 OD 450 nm; in [2] it was 0.88 OD 450 nm; in test [3], 0.18 OD 450 nm; in test [4] it was 1 OD 450 nm; in test [5] it was 0.78 OD 450 nm; in test [6], 0.6 OD 450 nm. The “OD 450 nm” value was 0.22 OD 450 nm in test [7], 0.59 OD 450 nm in test [8], 0.47 OD 450 nm in test [9] and 1.05 OD 450 nm in test [10].

B9: Fab P3 (Fab, V domains shown)
VH: EVQLLESGGGVVQPGKSLRLSCAVSGFTLNTFAMHWVRQVPGKGLEWVALTSHDGSRQDYADSVRGRFTISRDNSKSMVFLLMNSLRAEDTAVYYCVRGGPAYYTYNDVLTGYAYVVGDFWGQGTLVTVSS
VL: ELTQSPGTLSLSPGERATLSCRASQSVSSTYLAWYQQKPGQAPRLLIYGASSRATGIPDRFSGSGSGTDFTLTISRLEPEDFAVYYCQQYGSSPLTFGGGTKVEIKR
Take B9: the “OD 450 nm” value in test [1] was 0.06 OD 450 nm; in test [2], 0 OD 450 nm; in [3], 0 OD 450 nm; in [4] it was 0.36 OD 450 nm; in test [5], 0.15 OD 450 nm; in [6], 0.11 OD 450 nm. The “OD 450 nm” value in test [7] worked out at 0.03 OD 450 nm; in test [8], 0.2 OD 450 nm; in [9] it was 0.11 OD 450 nm; in [10], 0.33 OD 450 nm.

B10: Fab B4 (Fab, V domains shown)
VH: VQLLEQSGAEVKKPGSSVKVSCRASGSPFSSYTITWVRQAPGQGLEWMGGIILMTGKANYAQKFQGRVTITADRSTTTAYMEMSSPTSDDTAIYYCARDPYVYAGDDVWSLSRWGQGTLVIVSP
VL: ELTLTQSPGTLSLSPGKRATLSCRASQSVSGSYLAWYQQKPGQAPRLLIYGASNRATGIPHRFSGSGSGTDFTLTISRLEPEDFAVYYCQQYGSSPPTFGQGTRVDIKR
For the molecule B10, the binding result in test [11] is recorded as “binds”.

B11: Fab B6b (Fab, V domains shown)
VH: VQLLEQSGAEVKKPGSSVKVSCRASGSPYSSYTITWVRQAPGQGLEWMGGIILMTGKANYAQKFQGRVTITADRATATAYMEMSSLTSDDTAIYYCARDPYVYAGDDVWSLSRWGQGTPVTVSS
VL: ELTQSPGTLSLSPGERATLSCRASQSVSRGNLAWYQQKRGQPPRLLIYGASYRATGIPDRFSGSGSGTDFTLTITKLEPEDFAVYYCQQYGHSLAFGQGTKVEIKG
For the molecule B11, in test [11], the binding result is “binds”.

B12: Fab B6a (Fab, V domains shown)
VH: VQLLEQSGAEVKKPGSSVKVSCRASGSPYSSYTITWVRQAPGQGLEWMGGIILMTGKANYAQKFQGRVTITADRATATAYMEMSSLTSDDTAIYYCARDPYVYAGDDVWSLSRWGQGTPVTVSS
VL: LTQSPGTLSLSPGERATLSCRASQSVASNYVAWYQQKPGQAPRLLIYGTSYRATGIPGRFSGSGSGTDFTLTISGLEPEDFAVYYCQQYGSSPQTFGQGTKVEIKR
As to B12, in test [11], the binding result is listed as “binds”.

B13: Fab U1 (Fab, V domains shown)
VH: VQLLEQSGPEVKRPGTSVKMSCKISGGASITQAMSWVRQAPGQGLEWMGGITPIFGTVNYAQKILGRVTITADEDTVSLELSSLKSEDTAVYYCAREVNLKTWNLAHPNVFDVWGQGTMLTVSS
VL: ELTQSPSSLSASVGDRVTITCRASQSISSFLNWYQQKPGKAPKLLIYAASSLQSGVPPRFSGSGSGTDFTLTISSLQPEDFATYYCQQSYSTPRTFGQGTKLEIKR
In the case of B13, the “OD 450 nm” value in test [1] is 0.06 OD 450 nm; in [2], 0.07 OD 450 nm; in [3], 0 OD 450 nm; in test [4], 0.26 OD 450 nm; in [5], 0 OD 450 nm; in test [6], 0.08 OD 450 nm. For the same molecule, the “OD 450 nm” value was found to be 0.06 OD 450 nm in test [7], 0.11 OD 450 nm in [8], 0.07 OD 450 nm in [9] and 0.11 OD 450 nm in [10].
